Measured values: the Immune Epitope Database (IEDB)

Columns and labels:
HLA-B*58:01 [1] = assay: IEDB peptide-MHC binding, purified MHC/competitive/radioactivity; filed as Kd, often an IC50 or EC50 that approximates it; ≥ and ≤ were set here for values at or beyond the usual limits of such assays
HLA-B*57:01 [2] = assay: as above
HLA-B*53:01 = assay: as above; conditions: source organism: Dengue virus 3 Martinique/1243/1999
HLA-B*15:01 [3] = assay: IEDB peptide-MHC binding, purified MHC/competitive/fluorescence; ≥ and ≤ were set here for values at or beyond the usual limits of such assays
HLA-A*24:02 [4] = assay: as above
HLA-A*02:01 [5] = assay: as above
HLA-B*07:02 = assay: IEDB peptide-MHC binding, purified MHC/direct/fluorescence; filed as Kd, often an IC50 or EC50 that approximates it; ≥ and ≤ were set here for values at or beyond the usual limits of such assays
HLA-B*08:01 = assay: as above
HLA-B*15:01 [6] = assay: as above
HLA-B*48:01 = assay: as above
HLA-B*58:01 [7] = assay: as above
HLA-A*01:01 = assay: as above
HLA-A*02:01 [8] = assay: as above
HLA-B*44:02 = assay: as above
HLA-B*46:01 = assay: as above
HLA-A*11:01 [9] = assay: as above
HLA-A*03:01 [10] = assay: as above
HLA-A*29:02 = assay: as above
HLA-B*27:05 = assay: as above
HLA-A*31:01 = assay: as above
HLA-B*57:01 [11] = assay: as above
HLA-A*11:01 [12] = assay: IEDB peptide-MHC binding, purified MHC/competitive/fluorescence; ≥ and ≤ were set here for values at or beyond the usual limits of such assays
HLA-A*03:01 [13] = assay: as above
HLA-B*18:01 = assay: IEDB peptide-MHC binding, purified MHC/direct/fluorescence; filed as Kd, often an IC50 or EC50 that approximates it; ≥ and ≤ were set here for values at or beyond the usual limits of such assays; conditions: source organism: Mammarenavirus juninense
HLA-A*69:01 = assay: as above
HLA-B*08:02 = assay: as above; conditions: source organism: Vibrio parahaemolyticus AQ3810
HLA-A*24:02 [14] = assay: IEDB peptide-MHC binding, purified MHC/competitive/radioactivity; filed as Kd, often an IC50 or EC50 that approximates it; ≥ and ≤ were set here for values at or beyond the usual limits of such assays; conditions: source organism: Dengue virus 3 Martinique/1243/1999
HLA-B*51:01 = assay: IEDB peptide-MHC binding, purified MHC/direct/fluorescence; filed as Kd, often an IC50 or EC50 that approximates it; ≥ and ≤ were set here for values at or beyond the usual limits of such assays
HLA-A*32:01 = assay: IEDB peptide-MHC binding, purified MHC/competitive/radioactivity; filed as Kd, often an IC50 or EC50 that approximates it; ≥ and ≤ were set here for values at or beyond the usual limits of such assays
HLA-B*15:17 = assay: IEDB peptide-MHC binding, purified MHC/direct/fluorescence; filed as Kd, often an IC50 or EC50 that approximates it; ≥ and ≤ were set here for values at or beyond the usual limits of such assays; conditions: source organism: Yellow fever virus
HLA-B*40:01 = assay: as above; conditions: source organism: Yersinia pestis
HLA-A*02:12 = assay: as above; conditions: source organism: Yersinia enterocolitica subsp. enterocolitica 8081
HLA-A*02:19 = assay: as above; conditions: source organism: Yersinia enterocolitica subsp. enterocolitica 8081
HLA-A*26:01 = assay: as above; conditions: source organism: Yersinia pestis
[15] = source organism: Dengue virus 3 Martinique/1243/1999
[16] = source organism: Mammarenavirus lassaense
[17] = source organism: Zaire ebolavirus
[18] = source organism: Dengue virus 2 Jamaica/1409/1983
[19] = source organism: Dengue virus 4 Philippines/H241/1956
[20] = source organism: Mammarenavirus juninense
[21] = source organism: Lassa virus Josiah
[22] = source organism: Sudan ebolavirus
[23] = source organism: Vaccinia virus Copenhagen
[24] = source organism: Giardia lamblia ATCC 50803
[25] = source organism: Dengue virus 1 Brazil/97-11/1997
[26] = source organism: Dengue virus 3 Singapore/8120/1995
[27] = source organism: Yersinia pestis
[28] = source organism: Yersinia pestis Nepal516
[29] = source organism: Yersinia enterocolitica subsp. enterocolitica 8081
[30] = source organism: Bacillus anthracis

KAKGSRAIW
Kd (HLA-B*58:01 [1]; [15]): 0.279 µM | Kd (HLA-B*57:01 [2]; [15]): 0.0101 µM

GATTETPTW
Kd (HLA-B*58:01 [1]; [15]): 0.00208 µM | Kd (HLA-B*57:01 [2]; [15]): 0.0804 µM | Kd (HLA-B*53:01): 0.0692 µM

FLPNPAFIH
IC50 (HLA-B*15:01 [3]; source organism: Variola virus): 25.5 µM | IC50 (HLA-A*24:02 [4]; source organism: Variola virus): 0.497 µM | IC50 (HLA-A*02:01 [5]; source organism: Variola virus): 2.11 µM

DIKLIDIAL
Kd (HLA-B*07:02; [16]): ≥ 20 µM | Kd (HLA-B*08:01; [16]): 0.894 µM | Kd (HLA-B*15:01 [6]; [16]): ≥ 20 µM | Kd (HLA-B*48:01; [16]): ≥ 20 µM | Kd (HLA-B*58:01 [7]; [16]): ≥ 20 µM | Kd (HLA-A*01:01; [16]): ≥ 20 µM | Kd (HLA-A*02:01 [8]; [16]): ≥ 20 µM | Kd (HLA-B*44:02; [16]): ≥ 20 µM | Kd (HLA-B*46:01; [16]): ≥ 20 µM | Kd (HLA-A*11:01 [9]; [16]): ≥ 20 µM | Kd (HLA-A*03:01 [10]; [16]): ≥ 20 µM | Kd (HLA-A*29:02; [16]): ≥ 20 µM | Kd (HLA-B*27:05; [16]): ≥ 20 µM | Kd (HLA-A*31:01; [16]): ≥ 20 µM | Kd (HLA-B*57:01 [11]; [16]): ≥ 20 µM

KAIDFLLQR
IC50 (HLA-A*24:02 [4]; [17]): ≥ 161 µM | IC50 (HLA-A*02:01 [5]; [17]): 9.59 µM | IC50 (HLA-A*11:01 [12]; [17]): 0.693 µM | IC50 (HLA-A*03:01 [13]; [17]): 28.8 µM

AMNEENRFV
IC50 (HLA-B*15:01 [3]; [17]): ≥ 220 µM | IC50 (HLA-A*02:01 [5]; [17]): 6.8 µM

YFGPAAEGI
IC50 (HLA-B*15:01 [3]; [17]): ≥ 197 µM | IC50 (HLA-A*24:02 [4]; [17]): 0.253 µM | IC50 (HLA-A*02:01 [5]; [17]): 60 µM

TSSQQKADWI
Kd (HLA-B*58:01 [1]; [18]): 1.07 µM | Kd (HLA-B*57:01 [2]; [18]): 2.59 µM

SASEAVNDSR
Kd (HLA-B*58:01 [1]; [19]): 0.0401 µM | Kd (HLA-B*57:01 [2]; [19]): 1.39 µM

QLAKRSEIL
Kd (HLA-B*08:01; [20]): 1.3 µM | Kd (HLA-B*48:01; [20]): ≥ 20 µM | Kd (HLA-B*58:01 [7]; [20]): ≥ 20 µM | Kd (HLA-A*01:01; [20]): ≥ 20 µM | Kd (HLA-B*18:01): ≥ 20 µM | Kd (HLA-B*44:02; [20]): ≥ 20 µM | Kd (HLA-B*46:01; [20]): ≥ 20 µM | Kd (HLA-A*11:01 [9]; [20]): ≥ 20 µM | Kd (HLA-A*03:01 [10]; [20]): ≥ 20 µM | Kd (HLA-A*29:02; [20]): ≥ 20 µM | Kd (HLA-B*27:05; [20]): ≥ 20 µM | Kd (HLA-A*31:01; [20]): ≥ 20 µM | Kd (HLA-A*69:01; [20]): ≥ 20 µM | Kd (HLA-B*57:01 [11]; [20]): ≥ 20 µM

GLITGGRRT
IC50 (HLA-A*24:02 [4]; [17]): 19 µM | IC50 (HLA-A*02:01 [5]; [17]): 14.7 µM | IC50 (HLA-A*11:01 [12]; [17]): ≥ 99.4 µM | IC50 (HLA-A*03:01 [13]; [17]): ≥ 141 µM

FLRKHNEGL
Kd (HLA-B*08:02): 1.75 µM

WMAEIPLQW
Kd (HLA-A*24:02 [14]): 0.174 µM | Kd (HLA-B*58:01 [1]; [15]): 0.0138 µM

LPTKLRPSA
Kd (HLA-B*07:02; [21]): 0.103 µM | Kd (HLA-B*51:01; [21]): ≥ 20 µM

PPDGVRGFP
IC50 (HLA-A*11:01 [12]; [22]): 63.2 µM | IC50 (HLA-A*03:01 [13]; [22]): 67.1 µM

ISNSVAQAR
IC50 (HLA-A*11:01 [12]; [17]): 49.2 µM | IC50 (HLA-A*03:01 [13]; [17]): ≥ 110 µM

KASFIEVKSC
Kd (HLA-B*58:01 [1]; [18]): 0.37 µM | Kd (HLA-B*57:01 [2]; [18]): 0.109 µM

GILGSLGLR
IC50 (HLA-A*02:01 [5]; [22]): 3.62 µM | IC50 (HLA-A*11:01 [12]; [22]): 3.84 µM | IC50 (HLA-A*03:01 [13]; [22]): 15.2 µM

IITPIVFYR
IC50 (HLA-A*24:02 [4]; [23]): 20.3 µM | IC50 (HLA-A*02:01 [5]; [23]): ≥ 132 µM | IC50 (HLA-A*11:01 [12]; [23]): 0.263 µM | IC50 (HLA-A*03:01 [13]; [23]): 1.49 µM

KLRSNALSL
Kd (HLA-B*07:02; [24]): 0.008 µM | Kd (HLA-B*15:01 [6]; [24]): 0.025 µM | Kd (HLA-B*51:01; [24]): ≥ 20 µM

RKAIDFLLR
IC50 (HLA-A*03:01 [13]; [22]): ≥ 212 µM

FGSLGGVFTS
Kd (HLA-B*58:01 [1]; [18]): 5.33 µM | Kd (HLA-B*57:01 [2]; [18]): 2.18 µM

ESSSNPTIEE
Kd (HLA-B*58:01 [1]; [19]): 9.49 µM | Kd (HLA-B*57:01 [2]; [19]): 2.32 µM

PATLLVWHTW
Kd (HLA-B*58:01 [1]; [15]): 0.278 µM | Kd (HLA-A*32:01; [15]): 3.67 µM | Kd (HLA-B*57:01 [2]; [15]): 1.39 µM

CTSQILLMRT
Kd (HLA-B*58:01 [1]; [25]): 17.1 µM | Kd (HLA-B*57:01 [2]; [25]): 2.41 µM

HMQISTIGI
IC50 (HLA-B*15:01 [3]; [22]): 9.61 µM | IC50 (HLA-A*24:02 [4]; [22]): 15.6 µM | IC50 (HLA-A*02:01 [5]; [22]): 4.09 µM

KVMEITAEW
Kd (HLA-B*58:01 [1]; [26]): 0.00109 µM | Kd (HLA-A*32:01; [26]): 0.0143 µM | Kd (HLA-B*57:01 [2]; [26]): 0.0181 µM

LQLFLRATT
IC50 (HLA-B*15:01 [3]; [22]): ≥ 91.4 µM | IC50 (HLA-A*02:01 [5]; [22]): ≥ 125 µM

ESWIVDRQW
Kd (HLA-B*15:17): 0.135 µM | Kd (HLA-B*57:01 [11]; source organism: Yellow fever virus): 0.0195 µM

PLARTAKVK
IC50 (HLA-A*11:01 [12]; [17]): 48.4 µM | IC50 (HLA-A*03:01 [13]; [17]): 4.15 µM

SLTESDMDY
IC50 (HLA-B*15:01 [3]; [17]): 68.3 µM | IC50 (HLA-A*02:01 [5]; [17]): ≥ 140 µM

ETIFTVLAL
Kd (HLA-B*07:02; [27]): 4.5 µM | Kd (HLA-B*08:01; [28]): ≥ 20 µM | Kd (HLA-B*15:01 [6]; [28]): ≥ 20 µM | Kd (HLA-B*40:01): 2.41 µM | Kd (HLA-B*51:01; [29]): ≥ 20 µM | Kd (HLA-B*58:01 [7]; [28]): ≥ 20 µM | Kd (HLA-A*02:12): ≥ 20 µM | Kd (HLA-A*01:01; [28]): ≥ 20 µM | Kd (HLA-A*02:01 [8]; [28]): ≥ 20 µM | Kd (HLA-B*44:02; [28]): ≥ 20 µM | Kd (HLA-A*11:01 [9]; [28]): ≥ 20 µM | Kd (HLA-A*03:01 [10]; [28]): ≥ 20 µM | Kd (HLA-A*29:02; [29]): 0.182 µM | Kd (HLA-A*02:19): ≥ 20 µM | Kd (HLA-B*27:05; [28]): ≥ 20 µM | Kd (HLA-A*26:01): 0.00767 µM | Kd (HLA-A*31:01; [28]): ≥ 20 µM | Kd (HLA-A*69:01; [27]): 0.0035 µM | Kd (HLA-B*57:01 [11]; [29]): ≥ 20 µM

KILTAGLSV
IC50 (HLA-A*02:01 [5]; [17]): 2.56 µM | IC50 (HLA-A*11:01 [12]; [17]): ≥ 159 µM | IC50 (HLA-A*03:01 [13]; [17]): 36.3 µM

RPQHVKKSA
Kd (HLA-B*07:02; [30]): 0.0085 µM | Kd (HLA-B*15:01 [6]; source organism: Bacillus cereus NVH0597-99): ≥ 20 µM | Kd (HLA-B*51:01; [30]): ≥ 20 µM

ASPMLYQLL
IC50 (HLA-B*15:01 [3]; [23]): 37.2 µM | IC50 (HLA-A*24:02 [4]; [23]): 0.233 µM | IC50 (HLA-A*02:01 [5]; [23]): 39.6 µM
